Assay results taken from article PMC6877594, “Atomic structure of the human herpesvirus 6B capsid and capsid-associated tegument complexes” (Nature Communications, 2019).
Several values for one entry are separate records, joined by “and”; a condition that tells them apart may be missing. Equal values may be shown once.

B1: major capsid protein (MCP) of human herpesvirus 6B (natural protein)
chain: MENWQATEILPKIEAPLNIFNDIKTYTAEQLFDNLRIYFGDDPSRYNISFEALLGIYCNKIEWINFFTTPIAVAANVIRFNDVSRMTLGKVLFFIQLPRVATGNDVTAPKETTIMVAKHSEKHPINISFDLSAACLEHLENTFKNTVIDQILNINALHTVLRSLKNSADSLERGLIHAFMQTLLRKSPPQFIVLTMNENKVHNKQALSRVQRSNMFQSLKNRLLTSLFFLNRNNNSSYIYRILNDMMESVTESILNDTNNYTSKENIPLDGVLLGPIGSIQKLTNILSQYISTQVVSAPISYGHFIMGKENAVTAIAYRAIMADFTQFTVNAGTEQQDTNNKSEIFDKSRAYADLKLNTLKLGDKLVAFDHLHKVYKNTDVNDPLEQSLQLTFFFPLGIYIPTETGFSTMETRVKLNDTMENNLPTSVFFHNKDQVVQRIDFADILPSVCHPIVHDSTIVERLMKNEPLPTGHRFSQLCQLKITRENPTRILQTLYNLYESRQEVPKNTNVLKNELNVEDFYKPDNPTLPTERHPFFDLTYIQKNRATEVLCTPRIMIGNMPLPLAPISFHEARTNQMLEHAKTNSHNYDFTLKIVTESLTSGSYPELAYVIEILVHGNKHAFMILKQVISQCISYWFNMKHILLFCNSFEMIMLISNHMGDELIPGAAFAHYRNLVSLIRLVKRTISISNINEQLCGEPLVNFANALFDGRLFCPFVHTMPRNDTNAKITADDTPLTQNTVRVRNYEISDVQRMNLIDSSVVFTDNDRPSNENTILSKIFYFCVLPALSNNKACGAGVNVKELVLDLFYTEPFICPDDCFQENPISSDVLMSLIREAMGPGYTVANTSSIAKQLFKSLIYINENTKILEVEVSLDPAQRHGNSVHFQSLQHILYNGLCLISPITTLRRYYQPIPFHRFFSDPGICGTMNADIQVFLNTFPHYQRNDGGFPLPPPLALEFYNWQRTPFSVYSAFCPNSLLSIMTLAAMHSKLSPVAIAIQSKSKIHPGFAATLVRTDNFDVECLLYSSRAATSIILDDPTVTAEAKDIVTTYNFTQHLSFVDMGLGFSSTTATANLKRIKSDMGSKIQNLFSAFPIHAFTNTDINTWIRHHVGIEKPNPSEGEALNIITFGGINKNPPSILLHGQQAICEVILTPVTTNINFFKLPHNPRGRESCMMGTDPHNEEAARKALYDHTQTDSDTFAATTNPWASLPGSLGDILYNTAHREQLCYNPKTYSPNAQFFTESDILKTNKMMYKVINEYCMKSNSCLNSDSEIQYSCSEGTDSFVSRPCQFLQNALPLHCSSNQALLESRSKTGNTQISETHYCNYAIGETIPLQLIIESSI
notes: major capsid protein (MCP) of human herpesvirus 6B, strain Z29; 1345 amino acids long; domains described over a.a; 1-1345; Native protein in the virion capsid; 16 conformers (15 hexon, 1 penton) modelled in each asymmetric unit; also called penton MCP; hexon MCP
B2: triplex dimer protein (Tri2) of human herpesvirus 6B (natural protein)
chain: METVYCTFDHKLSLSDISTLCKLMNIVIPIPAHHHLIGSGNLGLYPIVSSNKDYVHIRNVLRTMVVTILQKVEGNQLVLRKPMTGQQYAIKNTGPFPWEKGDTLTLIPPLSTHSEEKLLKLGDWELTVPLVVPTAIAAEINIRLLCIGLIAVHREYNEMQTIIDELCSIQYRDVLIKLPDIVNDKQSMYSMKTACISLSMITAMAPDIVRTYIDRLTLEDHSMLLIKCQELLSKRTTLSTQRCGQLHATDIKDELKKIKSVLTMIDQINSLTNEKTYFVVCDVSADNRMATCIYKN
notes: triplex dimer protein (Tri2) of human herpesvirus 6B, strain Z29; domains clamp (a.a. 1-86), trunk (a.a. 87-181 and 276-296), embracing arm (a.a. 182-275); Native protein in the virion capsid; two conformers (Tri2A, Tri2B) of the same protein in each triplex; also called Tri2A; Tri2B
B3: smallest capsid protein (SCP) of human herpesvirus 6B, U32 gene product (natural protein)
chain: MTTIRGDDLSNQITQISGSSSKKEEEKKKQQMLTGVLGLQPTMANHPVLGVFLPKYAKQNGGNVDKTAFRLDLIRMLALHRLNTKTGSD
notes: smallest capsid protein (SCP), U32 gene product of human herpesvirus 6B, strain Z29; 89 residues long; the model covers residues 23-83, residues 1-22 are disordered; Native protein in the virion capsid; 16 conformers modelled in each asymmetric unit; also called penton SCP; hexon SCP
B4: tegument protein pU11 of human herpesvirus 6B (natural protein)
chain: MDLKAQSIPFAWLDRDKVQRLTNFLSNLENLENVDLREHPYVTNSCVVREGEDVDELKTLYNTFILWLMYHYVLSKRKPDYNAIWQDITKLQNVVNEYLKSKGLNKGNFENMFTNKEKFESQFSDIHRALLRLGNSIRWGSNVPIDTPYVNLTAEDSSEIENNLQDAEKNMLWYTVYNINDPWDENGYLVTSINKLVYLGKLFVTLNQSWSKLEKVAMSQIVTTQNHLSGHLRKNENFNAVYSQRVLQTPLTGQRVESFLKIITSDYEIIKSSLESYSASKAFSVPENGPHSLMDFASLDGRMPSDLSLPSISIDTKRPSADLARLKISQPKSLDAPLKTQRRHKFPESDSVDNAGGKILIKKETLGGRDVRATTPVSSVSLMSGVEPLSSLTSTNLDLRDKSHGNYRIGPSGILDFGVKLPAEAQSNTGDVDLLQDKTSIRSPSSGITDVVNGLANLNLRQNKSDVSRPWSKNTAANADVFDPVHRLVSEQTGTPFVLNNSDVAGSEAKLTTHSTETGVSPHNVSLIKDLRDKDGFRKQKKLDLLGSWTKEKNDKAIVHSREVTGDSGDATETVTARDSPVLRKTKHANDIFAGLNKKYARDVSRGGKGNSRDLYSGGNAEKKETSGKFNVDKEMTQNEQEPLPNLMEAARNAGEEQYVQAGLGQRVNKILAEFTNLISLGEKGIQDILHNQSGTELKLPTENKLGRESEEANVERILEVSDPQNLFKNFKLQNDLDSVQSPFRLPNADLSRDLDSVSFKDALDVKLPGNGEREIDLALQKVKAGERETSDFKVGQDETLIPTQLMKVETPEEKDDVIEKMVLRIRQDGETDEETVPGPGVAESLGIAAKDKSVIAS
notes: tegument protein pU11 of human herpesvirus 6B, strain Z29; 858 a.a. long; wild-type full-length protein inside the virion, only a.a; 7-275 (pU11nt) are resolved and modelled; also called pU11nt (the resolved N-terminal one-third, a.a. 7-275); pU11nt-a-1

Experiments:
[1] = target: the molecule itself; test: cryo-EM structure; in situ in HHV-6B (Z29) virions pelleted from SupT1 culture supernatant and resuspended in PBS; icosahedral reconstruction ~5.1 Å, sub-particle reconstructions at the fivefold, threefold and twofold axes at 3.82, 3.77 and 3.77 Å; atomic models of 59 conformers
[2] = target: B1; test: as above; conditions: partners not purified

| Binder | stoichiometry N [1] | stoichiometry N [2] |
| --- | --- | --- |
| B1 | 5 and 6 | – |
| B2 | 2 | – |
| B3 | – | 1 |
| B4 | 4 | – |
